Experimental data: patent publication US20160185853A1 (UNIVERSITY OF SOUTHERN CALIFORNIA, published 2016)
Each block holds one binder with its values, some of them ahead of it.

Columns and labels:
[1] = molecular target: T1, GRP78-His (human GRP78 amino acids 1-650, without KDEL motif, hexahistidine tag on C-terminus) (human, UniProt P11021 19-650); experiment: competition ELISA on GRP78-His; dilution series of unlabelled antibody against a fixed concentration of biotinylated murine MAb159 [panel A]
T1 construct: also called GRP78-His polypeptide

mouse GRP78 = molecular target: T2, mouse GRP78 (mouse, UniProt P20029 20-655); experiment: immunoblot of MEF lysates; band absent after deletion of Grp78
T2 construct: Denatured protein on an immunoblot; also called GRP78 protein band in mouse embryo fibroblast (MEF) lysates

human GRP78 = molecular target: T3, human GRP78 (human, UniProt P11021 19-654); experiment: Scatchard assay
T3 construct: also called BiP/HSPA5; antigen

HSP70 = molecular target: T4, HSP70 (UniProt P0DMV8 2-641); experiment: Western blot of MCF7 whole cell lysates
T4 construct: also called GRP78's closest paralogue

[2] = molecular target: T5, Flag tagged GRP78 (without KDEL) (human, UniProt P11021 19-650, surface biotinylated with Sulfo-NHS-LC-Biotin); experiment: surface biotinylation, avidin purification, anti-Flag immunoprecipitation, Western blot (293T cells)
T5 construct: also called surface GRP78 (overexpressed); not shown: Flag tag

binding result [1]: binds
B1: humanized MAb159 (antibody, V domains shown)
VH: QAQLVQSGAEVKKPGASVKVSCKASGYTFTSYWMHWVRQAPGQGLEWIGEINPGNGRTNYNEKFKRRVTITVDKSASTAYMELSSLRSEDTAVYYCATLYYYDGTYDYWGQGTTVTVSS
VL: DIVMTQSPSFLSASVGDRVTITCKASQNVGTDVAWYQQKPGKAPKALIYWASNRFTGVPDRFTGSGSGTDFTLTISSLQSEDVADYFCQQYSSSPWTFGGGTKVEIK
notes: It carries a human Fc (detected with a human Fc specific antibody)

binding result (mouse GRP78): binds | Kd (human GRP78): 1.7 nM
B2: MAb159 (murine monoclonal antibody) (antibody, V domains shown)
VH: QAQLQQPGAELVKPGASVRLSCKASGYTFTSYWMHWVKQRPGQGLEWIGEINPGNGRTNYNEKFKRKATLTVDKSSSTAYMQLNSLTSEDSAVYYCATLYYYDGTYDYWGQGTTLTVSS
VL: DIVMTQSHKFMSTSVGDRVSVTCKASQNVGTDVAWYQQKPGQSPKALIYWASNRFTGVPDRFTGSGSGTDFTLTINNVQSEDLVDYFCQQYSSSPWTFGGGTKLEIK
notes: Whole murine monoclonal antibody from a hybridoma, purified on protein G; also called murine MAb159; parental murine antibody
binding result (HSP70): no binding (tested: 1 µg/ml primary antibody)

binding result [2]: no binding
B3: ERK1 (enzyme, UniProt P27361 2-379, looked up)
chain: AAAAAQGGGGGEPRRTEGVGPGVPGEVEMVKGQPFDVGPRYTQLQYIGEGAYGMVSSAYDHVRKTRVAIKKISPFEHQTYCQRTLREIQILLRFRHENVIGIRDILRASTLEAMRDVYIVQDLMETDLYKLLKSQQLSNDHICYFLYQILRGLKYIHSANVLHRDLKPSNLLINTTCDLKICDFGLARIADPEHDHTGFLTEYVATRWYRAPEIMLNSKGYTKSIDIWSVGCILAEMLSNRPIFPGKHYLDQLNHILGILGSPSQEDLNCIINMKARNYLQSLPSKTKVAWAKLFPKSDSKALDLLDRMLTFNPNKRITVEEALAHPYLEQYYDPTDEPVAEEPFTFAMELDDLPKERLKELIFQETARFQPGVLEAP
notes: Printed only as ERK1/2; also called ERK1/2; Erk1/2
